The supplement of paper PMC7877785
± gives the uncertainty stated by the source.

Assay: self-splicing fitness, log relative to wild type (ln ratio); higher = more splicing; Tetrahymena group I intron in knt gene, E. coli kanamycin selection, DiMSum; sequences stand for … in CUCUCU…GGAGGGAAAAGUUAUCAGGCAUGCACCUGGUAGCUAGUCUUUAAACCAAUAGAUUGCAUCGGUUUAAAAGGCAAGACCGUCAAAUUGCGGGAAAGGGGUCAACAGCCGUUCAGUACCAAGUCUCAGGGGAAACUUUGAGAUGGCCUUGCAAAGGGUAUGGUAAUAAGCUGACGGACAUGGUCCUAACCACGCAGCCAAGUCCUAAGUCAACAGAUCUUCUGUUGAUAUGGAUGCAGUUCACAGACUAAAUGUCGGUCGGGGAAGAUGUAUUCUUCUCAUAAGAUAUAGUCGGACCUCUCCUUAAUGGGAGCUAGCGGAUGAAGUGAUGCAACACUGGAGCCGCUGGGAACUAAUUUGUAUGCGAAAGUAUAUUGAUUAGUUUUGGAGUACUCGUGGUCG
Outline: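 Colonies from six replicate transformations of E. coli BL21(DE3) were pooled and amplicon-sequenced on an Illumina HiSeq 2500. The library placed an intron with all eight P1ex-region nucleotides randomised inside the knt kanamycin-resistance gene on pET-22b(+), and cells grew overnight at 37°C or 30°C on LB agar with or without 25 μg/mL kanamycin (plus 100 μg/mL carbenicillin, 50 μM IPTG, 0.2% rhamnose). Fitness is the DiMSum error-weighted combination of wild-type-normalised replicate fold changes, kanamycin versus none.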

| Sequence | self-splicing fitness (ln) (30 °C) | self-splicing fitness (ln) (37 °C) |
| --- | --- | --- |
| CUUGAGCAAUAUUACGCGUA | -3.18 ± 0.35 | -2.31 ± 0.27 |
| CUUGAGCAAUAUUACGCUAG | -3.17 ± 0.28 | -2.48 ± 0.27 |
| CUUGAGCAAUAUUACGCUCA | -1.12 ± 0.32 | -2.33 ± 0.29 |
| CUUGAGCAAUAUUACGCUUG | – | -1.83 ± 0.41 |
| CUUGAGCAAUAUUACGGCAC | -2.5 ± 0.34 | -2.71 ± 0.39 |
| CUUGAGCAAUAUUACGGGUA | -3.78 ± 0.33 | -2.53 ± 0.24 |
| CUUGAGCAAUAUUACGGGUU | -2.91 ± 0.32 | -2.92 ± 0.28 |
| CUUGAGCAAUAUUACGGUUG | -2.28 ± 0.097 | -1.95 ± 0.14 |
| CUUGAGCAAUAUUACGUGGA | -2.88 ± 0.24 | -3.25 ± 0.33 |
| CUUGAGCAAUAUUACGUUAC | -3 ± 0.33 | -2.44 ± 0.32 |
| CUUGAGCAAUAUUACGUUGA | -3.17 ± 0.27 | -1.97 ± 0.22 |
| CUUUAGCAAUAUUACGACGU | -3.69 ± 0.38 | -1.86 ± 0.3 |
| CUUUAGCAAUAUUACGAUCG | 0.191 ± 0.17 | 0.476 ± 0.22 |
| CUUUAGCAAUAUUACGAUCU | -3.2 ± 0.36 | -2.48 ± 0.45 |
| CUUUAGCAAUAUUACGCAAA | -2.51 ± 0.21 | -1.34 ± 0.2 |
| CUUUAGCAAUAUUACGCCGU | -2.68 ± 0.41 | – |
| CUUUAGCAAUAUUACGCGGG | -3.35 ± 0.3 | -2.31 ± 0.32 |
| CUUUAGCAAUAUUACGCUGU | -2.75 ± 0.25 | -2.35 ± 0.37 |
| CUUUAGCAAUAUUACGGAGA | -2.74 ± 0.49 | – |
| CUUUAGCAAUAUUACGGAUA | -3.21 ± 0.42 | -2.7 ± 0.34 |
| CUUUAGCAAUAUUACGGGCU | – | -1.66 ± 0.41 |
| CUUUAGCAAUAUUACGGGGG | -4.05 ± 0.46 | -2.65 ± 0.45 |
| CUUUAGCAAUAUUACGGUAC | -2.49 ± 0.28 | -3.08 ± 0.47 |
| CUUUAGCAAUAUUACGGUCA | -2.41 ± 0.25 | -3.28 ± 0.35 |
| CUUUAGCAAUAUUACGUAGC | – | -1.6 ± 0.49 |

| Sequence | self-splicing fitness (ln) (30 °C) | self-splicing fitness (ln) (37 °C) |
| --- | --- | --- |
| CUUUAGCAAUAUUACGUCCA | -3.2 ± 0.41 | -0.864 ± 0.24 |
| CUUUAGCAAUAUUACGUCUU | -3.41 ± 0.26 | -3.28 ± 0.33 |
| CUUUAGCAAUAUUACGUGAA | -3.77 ± 0.35 | -2.65 ± 0.28 |
| CUUUAGCAAUAUUACGUGGG | -3.1 ± 0.17 | -2.96 ± 0.27 |
| CUUUAGCAAUAUUACGUGUU | -3.49 ± 0.18 | -3.77 ± 0.22 |
| CUUUAGCAAUAUUACGUUAA | -2.87 ± 0.27 | – |
| CUUUAGCAAUAUUACGUUAG | -2.49 ± 0.18 | -2.32 ± 0.26 |
| CUUUAGCAAUAUUACGUUUU | -3.27 ± 0.3 | -2.39 ± 0.35 |
| GAAAAGCAAUAUUACGAAGA | -2.88 ± 0.18 | -1.34 ± 0.13 |
| GAAAAGCAAUAUUACGACUA | 0.0422 ± 0.14 | 0.403 ± 0.15 |
| GAAAAGCAAUAUUACGCCCA | -0.288 ± 0.11 | -0.385 ± 0.19 |
| GAAAAGCAAUAUUACGCCGA | -1.01 ± 0.2 | -0.824 ± 0.23 |
| GAAAAGCAAUAUUACGCUCA | -0.514 ± 0.11 | 0.0911 ± 0.14 |
| GAAAAGCAAUAUUACGCUUU | -3.39 ± 0.22 | -2.39 ± 0.26 |
| GAAAAGCAAUAUUACGGCCG | -0.796 ± 0.087 | -0.537 ± 0.12 |
| GAAAAGCAAUAUUACGGCGG | -1.86 ± 0.1 | -1.59 ± 0.1 |
| GAAAAGCAAUAUUACGGCUA | -0.156 ± 0.082 | 0.451 ± 0.082 |
| GAAAAGCAAUAUUACGGGAA | -2.07 ± 0.14 | -0.425 ± 0.13 |
| GAAAAGCAAUAUUACGGGCU | -1.37 ± 0.15 | -1.72 ± 0.21 |
| GAAAAGCAAUAUUACGGUGC | -2.02 ± 0.12 | -2.05 ± 0.18 |
| GAAAAGCAAUAUUACGUAAC | -2.11 ± 0.18 | -1.38 ± 0.17 |
| GAAAAGCAAUAUUACGUAGA | -0.772 ± 0.076 | -1.77 ± 0.13 |
| GAAAAGCAAUAUUACGUAUU | -3.24 ± 0.13 | -2.16 ± 0.11 |
| GAAAAGCAAUAUUACGUGGG | -3.69 ± 0.13 | -1.29 ± 0.11 |
| GAAAAGCAAUAUUACGUUGA | -2.87 ± 0.15 | -1.24 ± 0.1 |

| Sequence | self-splicing fitness (ln) (30 °C) | self-splicing fitness (ln) (37 °C) |
| --- | --- | --- |
| GAAAAGCAAUAUUACGUUUG | -2.71 ± 0.097 | -2.02 ± 0.15 |
| GAACAGCAAUAUUACGAAAG | -3.62 ± 0.18 | -1.58 ± 0.13 |
| GAACAGCAAUAUUACGAAGU | -2.04 ± 0.12 | -0.944 ± 0.15 |
| GAACAGCAAUAUUACGAAUC | -1.76 ± 0.08 | -1.9 ± 0.13 |
| GAACAGCAAUAUUACGAGAC | -2.13 ± 0.22 | -1.21 ± 0.18 |
| GAACAGCAAUAUUACGCACA | -0.348 ± 0.082 | -0.338 ± 0.094 |
| GAACAGCAAUAUUACGCAGU | -3.37 ± 0.11 | -2.5 ± 0.13 |
| GAACAGCAAUAUUACGCCGA | -0.857 ± 0.12 | -0.581 ± 0.1 |
| GAACAGCAAUAUUACGCGAA | -0.881 ± 0.086 | -0.124 ± 0.12 |
| GAACAGCAAUAUUACGCGCC | -0.957 ± 0.13 | -0.851 ± 0.15 |
| GAACAGCAAUAUUACGCGCU | -0.914 ± 0.088 | -0.133 ± 0.11 |
| GAACAGCAAUAUUACGCGGA | -1.94 ± 0.082 | -0.737 ± 0.075 |
| GAACAGCAAUAUUACGCUCU | -1.37 ± 0.17 | -0.466 ± 0.15 |
| GAACAGCAAUAUUACGGAAG | -3.32 ± 0.14 | -1.73 ± 0.16 |
| GAACAGCAAUAUUACGGACU | -1.28 ± 0.085 | -0.212 ± 0.097 |
| GAACAGCAAUAUUACGGGAU | -2.26 ± 0.084 | -1.05 ± 0.079 |
| GAACAGCAAUAUUACGGGUG | -1.88 ± 0.072 | -1.59 ± 0.092 |
| GAACAGCAAUAUUACGGUGG | -2 ± 0.095 | -1.19 ± 0.1 |
| GAACAGCAAUAUUACGGUGU | -2.02 ± 0.066 | -0.373 ± 0.069 |
| GAACAGCAAUAUUACGUACC | -0.94 ± 0.27 | 0.0452 ± 0.3 |
| GAACAGCAAUAUUACGUUAG | -0.954 ± 0.047 | -0.969 ± 0.067 |
| GAACAGCAAUAUUACGUUCA | -2.31 ± 0.1 | -1.49 ± 0.087 |
| GAACAGCAAUAUUACGUUCC | -2.88 ± 0.36 | – |
| GAACAGCAAUAUUACGUUCG | -2.12 ± 0.099 | -1.38 ± 0.096 |
| GAACAGCAAUAUUACGUUUA | -0.588 ± 0.07 | -0.031 ± 0.078 |

| Sequence | self-splicing fitness (ln) (30 °C) | self-splicing fitness (ln) (37 °C) |
| --- | --- | --- |
| GAAGAGCAAUAUUACGACAG | -3.36 ± 0.29 | -2.76 ± 0.28 |
| GAAGAGCAAUAUUACGACUC | -0.32 ± 0.095 | -0.113 ± 0.11 |
| GAAGAGCAAUAUUACGACUG | -3.86 ± 0.39 | -1.88 ± 0.16 |
| GAAGAGCAAUAUUACGAUAU | -4.88 ± 0.36 | -1.06 ± 0.14 |
| GAAGAGCAAUAUUACGCCUC | -3.27 ± 0.32 | -2.96 ± 0.32 |
| GAAGAGCAAUAUUACGCGGA | -2.64 ± 0.17 | -2.37 ± 0.21 |
| GAAGAGCAAUAUUACGCGUA | -3.68 ± 0.37 | -2.05 ± 0.22 |
| GAAGAGCAAUAUUACGCUGU | -3.82 ± 0.3 | -2.6 ± 0.29 |
| GAAGAGCAAUAUUACGCUUC | -2.47 ± 0.34 | -1.37 ± 0.18 |
| GAAGAGCAAUAUUACGCUUG | -2.25 ± 0.13 | -1.3 ± 0.14 |
| GAAGAGCAAUAUUACGGACG | -2.59 ± 0.27 | – |
| GAAGAGCAAUAUUACGGCCG | -2.63 ± 0.42 | -0.854 ± 0.29 |
| GAAGAGCAAUAUUACGGGAU | -3.63 ± 0.22 | -3.16 ± 0.3 |
| GAAGAGCAAUAUUACGGGGU | -3.09 ± 0.34 | -1.83 ± 0.28 |
| GAAGAGCAAUAUUACGUAAU | -3.03 ± 0.2 | -1.22 ± 0.23 |
| GAAGAGCAAUAUUACGUAUA | -2 ± 0.28 | -3.5 ± 0.34 |
| GAAGAGCAAUAUUACGUCGU | -2.96 ± 0.21 | -2.24 ± 0.21 |
| GAAGAGCAAUAUUACGUCUU | -4.83 ± 0.19 | -2.4 ± 0.081 |
| GAAGAGCAAUAUUACGUGGA | -2.05 ± 0.18 | -2.54 ± 0.26 |
| GAAGAGCAAUAUUACGUUAG | -2.19 ± 0.3 | -2.59 ± 0.31 |
| GAAUAGCAAUAUUACGAAGC | -3.17 ± 0.24 | -2.54 ± 0.22 |
| GAAUAGCAAUAUUACGCAGG | -2.6 ± 0.2 | -2.28 ± 0.21 |
